# Like-named read-outs stand apart in the source and are kept apart here.
# Experiments:
# [1] = target: T1, SUDc5b (SARS coronavirus TOR2, UniProt P0C6U8 1207-1380); assay: zone-interference gel electrophoresis
# [2] = target: T1, SUDc5b; assay: EMSA
# [3] = target: T2, SUD full-length (Nsp3c) (SARS coronavirus TOR2, UniProt P0C6U8 1167-1544); assay: EMSA
# [4] = target: T1, SUDc5b; assay: EMSA; remark: listed apart in the source
# [5] = target: T2, SUD full-length (Nsp3c); assay: EMSA; remark: listed apart in the source
binder,measurement,setting,value
ATGTAATGCGGGGGGCACTACGTT (ssDNA) [3(-)],Kd,[1],~1000 nM
CATCTATGAGGGGGGTTTACTATC (ssDNA) [2(+)],Kd,[1],~1000 nM
GGGUGACACUGGGGGGGGGGGGGGCUCUCCUCUCGGUGCUCCUUCACUC (ssRNA) [bbc3-G14 RNA],binding result,[2],binds
same,binding result,[3],binds
GGGUGACACUAAAAAAAAAAAAAACUCUCCUCUCGGUGCUCCUUCACUC (ssRNA) [bbc3-A14 RNA],binding result,[4],no binding
same,binding result,[5],no binding

# — paper PMC7092865
